Test results from paper PMC10397247.
Each block holds one binder with its values, some of them ahead of it.

How the values were obtained:
Test in all cases: two-hybrid library CCmax;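 note: natural log of median RNA to DNA barcode read ratio; higher means stronger binding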
4H249-AA = molecular target: T1, 4H249-AA; details: mean of both orientations
T1 chain: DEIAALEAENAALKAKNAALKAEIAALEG

4H63-AA = molecular target: T2, 4H63-AA; details: mean of both orientations
T2 chain: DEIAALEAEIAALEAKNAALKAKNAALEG

4H1449-AA = molecular target: T3, 4H1449-AA; details: mean of both orientations
T3 chain: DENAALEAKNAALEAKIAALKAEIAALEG

4H3915-AA = molecular target: T4, 4H3915-AA; details: mean of both orientations
T4 chain: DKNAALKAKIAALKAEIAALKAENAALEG

4H3619-AA = molecular target: T5, 4H3619-AA; details: mean of both orientations
T5 chain: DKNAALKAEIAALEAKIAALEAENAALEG

4H3449-AA = molecular target: T6, 4H3449-AA; details: mean of both orientations
T6 chain: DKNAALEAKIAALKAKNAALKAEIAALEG

4H1593-AA = molecular target: T7, 4H1593-AA; details: mean of both orientations
T7 chain: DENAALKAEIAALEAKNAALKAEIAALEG

4H2604-AA = molecular target: T8, 4H2604-AA; details: mean of both orientations
T8 chain: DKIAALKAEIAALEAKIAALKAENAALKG

4H2621-AA = molecular target: T9, 4H2621-AA; details: mean of both orientations
T9 chain: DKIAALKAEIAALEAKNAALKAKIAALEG

4H2774-AA = molecular target: T10, 4H2774-AA; details: mean of both orientations
T10 chain: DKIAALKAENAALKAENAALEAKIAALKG

4H2903-AA = molecular target: T11, 4H2903-AA; details: mean of both orientations
T11 chain: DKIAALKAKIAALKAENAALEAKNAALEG

4H380-AA = molecular target: T12, 4H380-AA; details: mean of both orientations
T12 chain: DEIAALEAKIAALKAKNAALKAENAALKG

4H432-AA = molecular target: T13, 4H432-AA; details: mean of both orientations
T13 chain: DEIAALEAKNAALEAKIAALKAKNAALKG

4H3094-AA = molecular target: T14, 4H3094-AA; details: mean of both orientations
T14 chain: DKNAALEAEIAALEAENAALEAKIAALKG

4H235-AA = molecular target: T15, 4H235-AA; details: mean of both orientations
T15 chain: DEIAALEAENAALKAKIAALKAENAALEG

4H1878-AA = molecular target: T16, 4H1878-AA; details: mean of both orientations
T16 chain: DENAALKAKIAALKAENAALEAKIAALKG

4H1349-AA = molecular target: T17, 4H1349-AA; details: mean of both orientations
T17 chain: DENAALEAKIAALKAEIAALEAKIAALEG

4H2961-AA = molecular target: T18, 4H2961-AA; details: mean of both orientations
T18 chain: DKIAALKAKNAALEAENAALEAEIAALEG

4H1384-AA = molecular target: T19, 4H1384-AA; details: mean of both orientations
T19 chain: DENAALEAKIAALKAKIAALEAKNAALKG

4H3777-AA = molecular target: T20, 4H3777-AA; details: mean of both orientations
T20 chain: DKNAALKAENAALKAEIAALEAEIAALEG

4H3629-AA = molecular target: T21, 4H3629-AA; details: mean of both orientations
T21 chain: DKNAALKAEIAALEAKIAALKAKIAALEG

4H2760-AA = molecular target: T22, 4H2760-AA; details: mean of both orientations
T22 chain: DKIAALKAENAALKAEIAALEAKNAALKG

4H2580-AA = molecular target: T23, 4H2580-AA; details: mean of both orientations
T23 chain: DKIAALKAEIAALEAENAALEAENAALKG

4H324-AA = molecular target: T24, 4H324-AA; details: mean of both orientations
T24 chain: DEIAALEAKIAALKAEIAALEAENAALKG

4H3049-AA = molecular target: T25, 4H3049-AA; details: mean of both orientations
T25 chain: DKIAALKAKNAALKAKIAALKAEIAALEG

4H3974-AA = molecular target: T26, 4H3974-AA; details: mean of both orientations
T26 chain: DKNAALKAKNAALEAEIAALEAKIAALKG

4H341-AA = molecular target: T27, 4H341-AA; details: mean of both orientations
T27 chain: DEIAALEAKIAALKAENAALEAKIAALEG

4H446-AA = molecular target: T28, 4H446-AA; details: mean of both orientations
T28 chain: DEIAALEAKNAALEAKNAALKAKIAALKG

4H133-AA = molecular target: T29, 4H133-AA
T29 chain: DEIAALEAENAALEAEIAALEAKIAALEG

4H2947-AA = molecular target: T30, 4H2947-AA
T30 chain: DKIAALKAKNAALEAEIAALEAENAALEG

4H123-AA = molecular target: T31, 4H123-AA
T31 chain: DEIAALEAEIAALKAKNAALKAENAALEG

4H3133-AA = molecular target: T32, 4H3133-AA; details: mean of both orientations
T32 chain: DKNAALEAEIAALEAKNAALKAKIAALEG

4H2611-AA = molecular target: T33, 4H2611-AA; details: mean of both orientations
T33 chain: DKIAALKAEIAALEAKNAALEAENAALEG

4H3162-AA = molecular target: T34, 4H3162-AA; details: mean of both orientations
T34 chain: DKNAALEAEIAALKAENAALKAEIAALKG

4H32-AA = molecular target: T35, 4H32-AA; details: mean of both orientations
T35 chain: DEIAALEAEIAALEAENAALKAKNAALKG

4H1401-AA = molecular target: T36, 4H1401-AA; details: mean of both orientations
T36 chain: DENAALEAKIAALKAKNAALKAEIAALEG

4H1388-AA = molecular target: T37, 4H1388-AA; details: mean of both orientations
T37 chain: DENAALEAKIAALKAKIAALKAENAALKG

4H2648-AA = molecular target: T38, 4H2648-AA; details: mean of both orientations
T38 chain: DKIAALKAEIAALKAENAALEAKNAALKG

4H697-AA = molecular target: T39, 4H697-AA; details: mean of both orientations
T39 chain: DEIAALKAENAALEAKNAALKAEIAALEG

4H1513-AA = molecular target: T40, 4H1513-AA; details: mean of both orientations
T40 chain: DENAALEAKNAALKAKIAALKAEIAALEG

4H1351-AA = molecular target: T41, 4H1351-AA; details: mean of both orientations
T41 chain: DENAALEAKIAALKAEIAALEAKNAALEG

4H1594-AA = molecular target: T42, 4H1594-AA; details: mean of both orientations
T42 chain: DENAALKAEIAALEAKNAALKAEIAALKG

4H3378-AA = molecular target: T43, 4H3378-AA
T43 chain: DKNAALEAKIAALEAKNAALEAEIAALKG

4H3718-AA = molecular target: T44, 4H3718-AA; details: mean of both orientations
T44 chain: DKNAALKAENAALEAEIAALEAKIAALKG

4H2907-AA = molecular target: T45, 4H2907-AA; details: mean of both orientations
T45 chain: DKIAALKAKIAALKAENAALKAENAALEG

4H2620-AA = molecular target: T46, 4H2620-AA; details: mean of both orientations
T46 chain: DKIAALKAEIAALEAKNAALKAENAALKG

4H1845-AA = molecular target: T47, 4H1845-AA; details: mean of both orientations
T47 chain: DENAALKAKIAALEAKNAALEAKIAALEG

4H2553-AA = molecular target: T48, 4H2553-AA; details: mean of both orientations
T48 chain: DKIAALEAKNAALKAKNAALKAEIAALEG

4H982-AA = molecular target: T49, 4H982-AA; details: mean of both orientations
T49 chain: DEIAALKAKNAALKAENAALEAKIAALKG

4H340-AA = molecular target: T50, 4H340-AA; details: mean of both orientations
T50 chain: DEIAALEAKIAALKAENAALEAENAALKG

4H3697-AA = molecular target: T51, 4H3697-AA; details: mean of both orientations
T51 chain: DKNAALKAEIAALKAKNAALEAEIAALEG

4H384-AA = molecular target: T52, 4H384-AA; details: mean of both orientations
T52 chain: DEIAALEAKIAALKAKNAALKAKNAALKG

4H1874-AA = molecular target: T53, 4H1874-AA; details: mean of both orientations
T53 chain: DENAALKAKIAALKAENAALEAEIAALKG

4H3865-AA = molecular target: T54, 4H3865-AA; details: mean of both orientations
T54 chain: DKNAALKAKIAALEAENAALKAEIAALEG

4H1629-AA = molecular target: T55, 4H1629-AA; details: mean of both orientations
T55 chain: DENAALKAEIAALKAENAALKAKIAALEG

4H3606-AA = molecular target: T56, 4H3606-AA; details: mean of both orientations
T56 chain: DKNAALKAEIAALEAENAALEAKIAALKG

4H2198-AA = molecular target: T57, 4H2198-AA; details: mean of both orientations
T57 chain: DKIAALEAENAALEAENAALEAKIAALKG

4H1310-AA = molecular target: T58, 4H1310-AA; details: mean of both orientations
T58 chain: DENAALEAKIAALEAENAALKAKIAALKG

4H3056-AA = molecular target: T59, 4H3056-AA; details: mean of both orientations
T59 chain: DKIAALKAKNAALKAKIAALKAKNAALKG

4H3588-AA = molecular target: T60, 4H3588-AA; details: mean of both orientations
T60 chain: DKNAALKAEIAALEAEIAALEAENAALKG

4H3413-AA = molecular target: T61, 4H3413-AA; details: mean of both orientations
T61 chain: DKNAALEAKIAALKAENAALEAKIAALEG

4H3631-AA = molecular target: T62, 4H3631-AA; details: mean of both orientations
T62 chain: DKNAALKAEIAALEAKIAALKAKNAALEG

interaction score (4H249-AA): 0.33
interaction score (4H63-AA): -1.37
interaction score (4H1449-AA): 0.176
interaction score (4H3915-AA): 1.08
interaction score (4H3619-AA): -0.325
interaction score (4H3449-AA): 0.625
interaction score (4H1593-AA): -0.948
interaction score (4H2604-AA): -0.647
interaction score (4H2621-AA): 0.704
interaction score (4H2774-AA): 0.342
interaction score (4H2903-AA): -1.62
interaction score (4H380-AA): -1.13
interaction score (4H432-AA): -0.168
interaction score (4H3094-AA): -1.05
interaction score (4H235-AA): 0.197
interaction score (4H1878-AA): 1.23
interaction score (4H1349-AA): 0.224
interaction score (4H2961-AA): -1.33
interaction score (4H1384-AA): 0.598
interaction score (4H3777-AA): 0.631
interaction score (4H3629-AA): 1.24
interaction score (4H2760-AA): 1.33
interaction score (4H2580-AA): -1.27
interaction score (4H324-AA): -0.986
interaction score (4H3049-AA): 2.17
interaction score (4H3974-AA): 0.688
interaction score (4H341-AA): -1.11
interaction score (4H446-AA): 0.854
interaction score (4H133-AA): -0.665
interaction score (4H2947-AA): -0.964
Binder: DEIAALEAENAALEAEIAALEAKIAALEG [4H133-AA]

interaction score (4H123-AA): -1.3
interaction score (4H3133-AA): -2.05
interaction score (4H2611-AA): 0.00349
interaction score (4H3162-AA): -1.32
interaction score (4H32-AA): 1.79
interaction score (4H1401-AA): -1.83
interaction score (4H1388-AA): -0.318
interaction score (4H2648-AA): 2.1
interaction score (4H697-AA): -0.781
interaction score (4H1513-AA): -1.7
interaction score (4H1351-AA): -0.328
interaction score (4H1594-AA): -1.9
interaction score (4H3378-AA): -1.89
interaction score (4H3718-AA): -0.602
interaction score (4H2907-AA): 0.0402
interaction score (4H2620-AA): 0.675
interaction score (4H1845-AA): -1.73
interaction score (4H2553-AA): -1.8
interaction score (4H982-AA): -1.15
interaction score (4H340-AA): 1.64
interaction score (4H3697-AA): -1.64
interaction score (4H384-AA): -0.635
interaction score (4H1874-AA): -0.134
interaction score (4H3865-AA): -1.93
interaction score (4H1629-AA): -1.79
interaction score (4H3606-AA): 1.04
interaction score (4H2198-AA): -0.461
interaction score (4H1310-AA): -2
interaction score (4H3056-AA): -2.08
interaction score (4H3588-AA): -0.454
interaction score (4H3413-AA): -1.35
interaction score (4H3631-AA): -0.979
Binder: DEIAALEAEIAALKAKNAALKAENAALEG [4H123-AA]
